Experimental data published in paper PMC12416549 (2024).
Where two headings read alike, the source gives them in different places.

T1: TNFR1 (Homo sapiens, UniProt P19438)
T1 chain: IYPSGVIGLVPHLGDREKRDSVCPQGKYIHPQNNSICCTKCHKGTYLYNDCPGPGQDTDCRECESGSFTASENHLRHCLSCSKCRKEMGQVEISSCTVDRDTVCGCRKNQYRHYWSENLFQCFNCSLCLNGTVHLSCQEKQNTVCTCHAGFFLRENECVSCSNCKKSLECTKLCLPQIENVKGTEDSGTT


Columns and labels:
TNFR1 [1] = molecular target: T1, TNFR1; assay: yeast display SC50
TNFR1 [2] = molecular target: T1, TNFR1; assay: yeast display SC50

Row | Binder | apparent Kd (screen) (TNFR1 [1]) | apparent Kd (screen) (TNFR1 [2])
1 | A63E (designed binder) SMEEEVEKAAKEYEKKKKEAIEKHLEKLKAKDKEAAERFLKELEEAAKEYAKDEAKTMSEEEEKRRAKKYKEKVLLSELSEEEQKEIKEAEEKLVRTILKYVEEAAK | 7.07 nM | –
2 | E60V (designed binder) SMEEEVEKAAKEYEKKKKEAIEKHLEKLKAKDKEAAERFLKELEEAAKEYAKDEAKTMSVEEAKRRAKKYKEKVLLSELSEEEQKEIKEAEEKLVRTILKYVEEAAK | 0.446 nM | –
3 | D65H (designed binder) MTLQELLREEALRRAEAEAFRYALELLAEKFPEQKEYLLDLAEEIESQIRSLSGVDVEDVRKFLHKEWAWVKELLAEHPAELAEVEAARAARLAELRAEVEAKVAA | – | 0.718 nM
4 | K66R (designed binder) MTLQELLREEALRRAEAEAFRYALELLAEKFPEQKEYLLDLAEEIESQIRSLSGVDVEDVRKFLDREWAWVKELLAEHPAELAEVEAARAARLAELRAEVEAKVAA | – | 0.869 nM
5 | E77Q (designed binder) MTLQELLREEALRRAEAEAFRYALELLAEKFPEQKEYLLDLAEEIESQIRSLSGVDVEDVRKFLDKEWAWVKELLAQHPAELAEVEAARAARLAELRAEVEAKVAA | – | 0.593 nM
6 | D40H (designed binder) MTLQELLREEALRRAEAEAFRYALELLAEKFPEQKEYLLHLAEEIESQIRSLSGVDVEDVRKFLDKEWAWVKELLAEHPAELAEVEAARAARLAELRAEVEAKVAA | – | 7.78 nM
7 | E29P (designed binder) MTLQELLREEALRRAEAEAFRYALELLAPKFPEQKEYLLDLAEEIESQIRSLSGVDVEDVRKFLDKEWAWVKELLAEHPAELAEVEAARAARLAELRAEVEAKVAA | – | 0.718 nM
8 | R92H (designed binder) MTLQELLREEALRRAEAEAFRYALELLAEKFPEQKEYLLDLAEEIESQIRSLSGVDVEDVRKFLDKEWAWVKELLAEHPAELAEVEAARAAHLAELRAEVEAKVAA | – | 0.869 nM
9 | I45E (designed binder) MTLQELLREEALRRAEAEAFRYALELLAEKFPEQKEYLLDLAEEEESQIRSLSGVDVEDVRKFLDKEWAWVKELLAEHPAELAEVEAARAARLAELRAEVEAKVAA | – | 1.05 nM
10 | A88H (designed binder) MTLQELLREEALRRAEAEAFRYALELLAEKFPEQKEYLLDLAEEIESQIRSLSGVDVEDVRKFLDKEWAWVKELLAEHPAELAEVEAHRAARLAELRAEVEAKVAA | – | 0.49 nM
11 | E73C (designed binder) MTLQELLREEALRRAEAEAFRYALELLAEKFPEQKEYLLDLAEEIESQIRSLSGVDVEDVRKFLDKEWAWVKCLLAEHPAELAEVEAARAARLAELRAEVEAKVAA | – | 0.79 nM
12 | F63L (designed binder) MTLQELLREEALRRAEAEAFRYALELLAEKFPEQKEYLLDLAEEIESQIRSLSGVDVEDVRKLLDKEWAWVKELLAEHPAELAEVEAARAARLAELRAEVEAKVAA | – | 2.48 nM
13 | V100A (designed binder) MTLQELLREEALRRAEAEAFRYALELLAEKFPEQKEYLLDLAEEIESQIRSLSGVDVEDVRKFLDKEWAWVKELLAEHPAELAEVEAARAARLAELRAEAEAKVAA | – | 0.869 nM
14 | L82G (designed binder) MTLQELLREEALRRAEAEAFRYALELLAEKFPEQKEYLLDLAEEIESQIRSLSGVDVEDVRKFLDKEWAWVKELLAEHPAEGAEVEAARAARLAELRAEVEAKVAA | – | 1.54 nM
15 | R8S (designed binder) MTLQELLSEEALRRAEAEAFRYALELLAEKFPEQKEYLLDLAEEIESQIRSLSGVDVEDVRKFLDKEWAWVKELLAEHPAELAEVEAARAARLAELRAEVEAKVAA | – | 0.653 nM
16 | E9D (designed binder) MTLQELLRDEALRRAEAEAFRYALELLAEKFPEQKEYLLDLAEEIESQIRSLSGVDVEDVRKFLDKEWAWVKELLAEHPAELAEVEAARAARLAELRAEVEAKVAA | – | 0.79 nM
17 | D65L (designed binder) MTLQELLREEALRRAEAEAFRYALELLAEKFPEQKEYLLDLAEEIESQIRSLSGVDVEDVRKFLLKEWAWVKELLAEHPAELAEVEAARAARLAELRAEVEAKVAA | – | 0.956 nM
18 | E84I (designed binder) MTLQELLREEALRRAEAEAFRYALELLAEKFPEQKEYLLDLAEEIESQIRSLSGVDVEDVRKFLDKEWAWVKELLAEHPAELAIVEAARAARLAELRAEVEAKVAA | – | 0.869 nM

Row | Binder | apparent Kd (screen) (TNFR1 [1]) | apparent Kd (screen) (TNFR1 [2])
19 | E95P (designed binder) MTLQELLREEALRRAEAEAFRYALELLAEKFPEQKEYLLDLAEEIESQIRSLSGVDVEDVRKFLDKEWAWVKELLAEHPAELAEVEAARAARLAPLRAEVEAKVAA | – | 0.718 nM
20 | L96E (designed binder) MTLQELLREEALRRAEAEAFRYALELLAEKFPEQKEYLLDLAEEIESQIRSLSGVDVEDVRKFLDKEWAWVKELLAEHPAELAEVEAARAARLAEERAEVEAKVAA | – | 0.446 nM
21 | R13F (designed binder) MTLQELLREEALFRAEAEAFRYALELLAEKFPEQKEYLLDLAEEIESQIRSLSGVDVEDVRKFLDKEWAWVKELLAEHPAELAEVEAARAARLAELRAEVEAKVAA | – | 0.277 nM
22 | E77K (designed binder) MTLQELLREEALRRAEAEAFRYALELLAEKFPEQKEYLLDLAEEIESQIRSLSGVDVEDVRKFLDKEWAWVKELLAKHPAELAEVEAARAARLAELRAEVEAKVAA | – | 0.446 nM
23 | D59F (designed binder) MTLQELLREEALRRAEAEAFRYALELLAEKFPEQKEYLLDLAEEIESQIRSLSGVDVEFVRKFLDKEWAWVKELLAEHPAELAEVEAARAARLAELRAEVEAKVAA | – | 12.5 nM
24 | E73H (designed binder) MTLQELLREEALRRAEAEAFRYALELLAEKFPEQKEYLLDLAEEIESQIRSLSGVDVEDVRKFLDKEWAWVKHLLAEHPAELAEVEAARAARLAELRAEVEAKVAA | – | 0.539 nM
25 | A98H (designed binder) MTLQELLREEALRRAEAEAFRYALELLAEKFPEQKEYLLDLAEEIESQIRSLSGVDVEDVRKFLDKEWAWVKELLAEHPAELAEVEAARAARLAELRHEVEAKVAA | – | 0.593 nM
26 | E9K (designed binder) MTLQELLRKEALRRAEAEAFRYALELLAEKFPEQKEYLLDLAEEIESQIRSLSGVDVEDVRKFLDKEWAWVKELLAEHPAELAEVEAARAARLAELRAEVEAKVAA | – | 1.86 nM
27 | A106W (designed binder) MTLQELLREEALRRAEAEAFRYALELLAEKFPEQKEYLLDLAEEIESQIRSLSGVDVEDVRKFLDKEWAWVKELLAEHPAELAEVEAARAARLAELRAEVEAKVAW | – | 0.956 nM
28 | E95F (designed binder) MTLQELLREEALRRAEAEAFRYALELLAEKFPEQKEYLLDLAEEIESQIRSLSGVDVEDVRKFLDKEWAWVKELLAEHPAELAEVEAARAARLAFLRAEVEAKVAA | – | 0.446 nM
29 | V104G (designed binder) MTLQELLREEALRRAEAEAFRYALELLAEKFPEQKEYLLDLAEEIESQIRSLSGVDVEDVRKFLDKEWAWVKELLAEHPAELAEVEAARAARLAELRAEVEAKGAA | – | 0.653 nM
30 | Y37M (designed binder) MTLQELLREEALRRAEAEAFRYALELLAEKFPEQKEMLLDLAEEIESQIRSLSGVDVEDVRKFLDKEWAWVKELLAEHPAELAEVEAARAARLAELRAEVEAKVAA | – | 2.25 nM
31 | A98K (designed binder) MTLQELLREEALRRAEAEAFRYALELLAEKFPEQKEYLLDLAEEIESQIRSLSGVDVEDVRKFLDKEWAWVKELLAEHPAELAEVEAARAARLAELRKEVEAKVAA | – | 0.446 nM
32 | A15D (designed binder) MTLQELLREEALRRDEAEAFRYALELLAEKFPEQKEYLLDLAEEIESQIRSLSGVDVEDVRKFLDKEWAWVKELLAEHPAELAEVEAARAARLAELRAEVEAKVAA | – | 0.718 nM
33 | R61I (designed binder) MTLQELLREEALRRAEAEAFRYALELLAEKFPEQKEYLLDLAEEIESQIRSLSGVDVEDVIKFLDKEWAWVKELLAEHPAELAEVEAARAARLAELRAEVEAKVAA | – | 0.539 nM
34 | A80Y (designed binder) MTLQELLREEALRRAEAEAFRYALELLAEKFPEQKEYLLDLAEEIESQIRSLSGVDVEDVRKFLDKEWAWVKELLAEHPYELAEVEAARAARLAELRAEVEAKVAA | – | 0.593 nM
35 | K103V (designed binder) MTLQELLREEALRRAEAEAFRYALELLAEKFPEQKEYLLDLAEEIESQIRSLSGVDVEDVRKFLDKEWAWVKELLAEHPAELAEVEAARAARLAELRAEVEAVVAA | – | 0.593 nM
